Reference: PMC6857237, “Design and structural characterisation of olfactomedin-1 variants as tools for functional studies” (BMC Molecular and Cell Biology, 2019)

Target: the molecule itself
Assay: SEC-MALS; analytical Superdex200 Increase 10/300, room temperature, SEC buffer (150 mM NaCl, 2 mM CaCl2, 20 mM HEPES pH 7.5), 0.5 mL/min; aldolase as calibration standard

B1: Olfm1^coil-Olf (olfactomedin-1 part of the coiled coil plus Olfactomedin domain, residues 212–478), disulfide-linked dimer (domain or fragment, mouse (Mus musculus))
chain: GSSNLEERLRACMQKLACGKLTGISDPVTVKTSGSRFGSWMTDPLAPEGDNRVWYMDGYHNNRFVREYKSMVDFMNTDNFTSHRLPHPWSGTGQVVYNGSIYFNKFQSHIIIRFDLKTEAILKTRSLDYAGYNNMYHYAWGGHSDIDLMVDENGLWAVYATNQNAGNIVISKLDPVSLQILQTWNTSYPKRSAGEAFIICGTLYVTNGYSGGTKVHYAYQTNASTYEYIDIPFQNKYSHISMLDYNPKDRALYAWNNGHQTLYNVTLFHAAA
modifications: N-linked glycans (8 per dimer, GntI-/- cells); inter-chain disulfide Cys221-Cys221; for crystallisation deglycosylated with Endo-H
notes: N-terminal residues left by the restriction site in the mature protein; Olfactomedin-1 (Olfm1), mouse, BMZ isoform cDNA as template, residues 212-478 (UNIPROT numbering); C-terminal VIRSDEL not included; includes Cys221; Only about a third of the expressed sample formed the disulfide-linked dimer; the dimer fraction was isolated by SEC and used; Secreted with a cystatin signal peptide (not in the …)
- stoichiometry N: 2
